Source: IntAct's records for PubMed 28164238

B1: T-box transcription factor TBX5 (Mus musculus), P70326 (parent)
chain: MADTDEGFGLARTPLEPDSKDRSCDSKPESALGAPSKSPSSPQAAFTQQGMEGIKVFLHERELWLKFHEVGTEMIITKAGRRMFPSYKVKVTGLNPKTKYILLMDIVPADDHRYKFADNKWSVTGKAEPAMPGRLYVHPDSPATGAHWMRQLVSFQKLKLTNNHLDPFGHIILNSMHKYQPRLHIVKADENNGFGSKNTAFCTHVFPETAFIAVTSYQNHKITQLKIENNPFAKGFRGSDDLELHRMSRMQSKEYPVVPRSTVRHKVTSNHSPFSSETRALSTSSNLGSQYQCENGVSGPSQDLLPPPNPYPLAQEHSQIYHCTKRKDEECSSTEHPYKKPYMETSPSEEDTFYRSGYPQQQGLSTSYRTESAQRQACMYASSAPPSEPVPSLEDISCNTWPSMPSYSSCTVTTVQPMDRLPYQHFSAHFTSGPLVPRLAGMANHGSPQLGEGMFQHQTSVAHQPVVRQCGPQTGLQSPGGLQPPEFLYTHGVPRTLSPHQYHSVHGVGMVPEWSENS

Key:
[1] = variants of: B1; conditions: with klf13_mouse Klf13, Q9JJZ6
[2] = variants of: B1; conditions: with nkx25_mouse Nkx2-5, P42582
Chain of nkx25_mouse Nkx2-5, P42582 (P42582 whole entry): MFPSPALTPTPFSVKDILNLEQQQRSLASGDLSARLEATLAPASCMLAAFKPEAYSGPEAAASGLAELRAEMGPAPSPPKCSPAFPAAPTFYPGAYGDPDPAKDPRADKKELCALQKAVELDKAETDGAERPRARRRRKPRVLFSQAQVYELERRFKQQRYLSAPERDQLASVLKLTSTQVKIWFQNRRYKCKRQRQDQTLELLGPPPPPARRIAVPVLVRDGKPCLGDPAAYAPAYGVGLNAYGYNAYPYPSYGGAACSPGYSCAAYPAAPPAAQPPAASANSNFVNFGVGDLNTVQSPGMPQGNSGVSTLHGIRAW

Chain of klf13_mouse Klf13, Q9JJZ6 (Q9JJZ6 whole entry): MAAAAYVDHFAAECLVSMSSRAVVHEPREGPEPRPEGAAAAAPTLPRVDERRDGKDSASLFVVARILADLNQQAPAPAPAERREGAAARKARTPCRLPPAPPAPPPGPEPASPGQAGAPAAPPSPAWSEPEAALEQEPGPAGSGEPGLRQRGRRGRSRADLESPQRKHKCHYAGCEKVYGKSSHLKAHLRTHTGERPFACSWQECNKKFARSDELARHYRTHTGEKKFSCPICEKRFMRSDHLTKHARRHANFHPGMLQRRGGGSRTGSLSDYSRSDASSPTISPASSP

Variant | effect of a mutation on the interaction [1] | effect of a mutation on the interaction [2]
MADTDEGFGLARTPLEPDSKDRSCDSKPESALGAPSKSPSSPQAAFTQQGMEGIKVFLHERELWLKFHEVGTEMIITKAGRRMFPSYKVKVTGLNPKTKYIPLMDIVPADDHRYKFADNKWSVTGKAEPAMPGRLYVHPDSPATGAHWMRQLVSFQKLKLTNNHLDPFGHIILNSMHKYQPRLHIVKADENNGFGSKNTAFCTHVFPETAFIAVTSYQNHKITQLKIENNPFAKGFRGSDDLELHRMSRMQSKEYPVVPRSTVRHKVTSNHSPFSSETRALSTSSNLGSQYQCENGVSGPSQDLLPPPNPYPLAQEHSQIYHCTKRKDEECSSTEHPYKKPYMETSPSEEDTFYRSGYPQQQGLSTSYRTESAQRQACMYASSAPPSEPVPSLEDISCNTWPSMPSYSSCTVTTVQPMDRLPYQHFSAHFTSGPLVPRLAGMANHGSPQLGEGMFQHQTSVAHQPVVRQCGPQTGLQSPGGLQPPEFLYTHGVPRTLSPHQYHSVHGVGMVPEWSENS [L102P] | decreasing interaction strength | decreasing interaction strength
MADTDEGFGLARTPLEPDSKDRSCDSKPESALGAPSKSPSSPQAAFTQQGMEGIKVFLHERELWLKFHEVGTEMIITKAGRRMFPSYKVKVTGLNPKTKCILLMDIVPADDHRYKFADNKWSVTGKAEPAMPGRLYVHPDSPATGAHWMRQLVSFQKLKLTNNHLDPFGHIILNSMHKYQPRLHIVKADENNGFGSKNTAFCTHVFPETAFIAVTSYQNHKITQLKIENNPFAKGFRGSDDLELHRMSRMQSKEYPVVPRSTVRHKVTSNHSPFSSETRALSTSSNLGSQYQCENGVSGPSQDLLPPPNPYPLAQEHSQIYHCTKRKDEECSSTEHPYKKPYMETSPSEEDTFYRSGYPQQQGLSTSYRTESAQRQACMYASSAPPSEPVPSLEDISCNTWPSMPSYSSCTVTTVQPMDRLPYQHFSAHFTSGPLVPRLAGMANHGSPQLGEGMFQHQTSVAHQPVVRQCGPQTGLQSPGGLQPPEFLYTHGVPRTLSPHQYHSVHGVGMVPEWSENS [Y100C] | decreasing interaction strength | decreasing interaction strength
MADTDEGFGLARTPLEPDSKDRSCDSKPESALGAPSKSPSSPQAAFTQQGMEGTKVFLHERELWLKFHEVGTEMIITKAGRRMFPSYKVKVTGLNPKTKYILLMDIVPADDHRYKFADNKWSVTGKAEPAMPGRLYVHPDSPATGAHWMRQLVSFQKLKLTNNHLDPFGHIILNSMHKYQPRLHIVKADENNGFGSKNTAFCTHVFPETAFIAVTSYQNHKITQLKIENNPFAKGFRGSDDLELHRMSRMQSKEYPVVPRSTVRHKVTSNHSPFSSETRALSTSSNLGSQYQCENGVSGPSQDLLPPPNPYPLAQEHSQIYHCTKRKDEECSSTEHPYKKPYMETSPSEEDTFYRSGYPQQQGLSTSYRTESAQRQACMYASSAPPSEPVPSLEDISCNTWPSMPSYSSCTVTTVQPMDRLPYQHFSAHFTSGPLVPRLAGMANHGSPQLGEGMFQHQTSVAHQPVVRQCGPQTGLQSPGGLQPPEFLYTHGVPRTLSPHQYHSVHGVGMVPEWSENS [I54T] | with no effect | with no effect
MADTDEGFGLARTPLEPDSKDRSCDSKPESALGAPSKSPSSPQAAFTQQGMEGIKVFLHERELWLKFHEVGTEMIITKAGRRMFPSYKVKVTGLNLKTKYILLMDIVPADDHRYKFADNKWSVTGKAEPAMPGRLYVHPDSPATGAHWMRQLVSFQKLKLTNNHLDPFGHIILNSMHKYQPRLHIVKADENNGFGSKNTAFCTHVFPETAFIAVTSYQNHKITQLKIENNPFAKGFRGSDDLELHRMSRMQSKEYPVVPRSTVRHKVTSNHSPFSSETRALSTSSNLGSQYQCENGVSGPSQDLLPPPNPYPLAQEHSQIYHCTKRKDEECSSTEHPYKKPYMETSPSEEDTFYRSGYPQQQGLSTSYRTESAQRQACMYASSAPPSEPVPSLEDISCNTWPSMPSYSSCTVTTVQPMDRLPYQHFSAHFTSGPLVPRLAGMANHGSPQLGEGMFQHQTSVAHQPVVRQCGPQTGLQSPGGLQPPEFLYTHGVPRTLSPHQYHSVHGVGMVPEWSENS [P96L] | with no effect | decreasing interaction strength
MADTDEGFGLARTPLEPDSKDRSCDSKPESALGAPSKSPSSPQAAFTQQGMEGIKVFLHERELWLKFHEVGTEMIITKVGRRMFPSYKVKVTGLNPKTKYILLMDIVPADDHRYKFADNKWSVTGKAEPAMPGRLYVHPDSPATGAHWMRQLVSFQKLKLTNNHLDPFGHIILNSMHKYQPRLHIVKADENNGFGSKNTAFCTHVFPETAFIAVTSYQNHKITQLKIENNPFAKGFRGSDDLELHRMSRMQSKEYPVVPRSTVRHKVTSNHSPFSSETRALSTSSNLGSQYQCENGVSGPSQDLLPPPNPYPLAQEHSQIYHCTKRKDEECSSTEHPYKKPYMETSPSEEDTFYRSGYPQQQGLSTSYRTESAQRQACMYASSAPPSEPVPSLEDISCNTWPSMPSYSSCTVTTVQPMDRLPYQHFSAHFTSGPLVPRLAGMANHGSPQLGEGMFQHQTSVAHQPVVRQCGPQTGLQSPGGLQPPEFLYTHGVPRTLSPHQYHSVHGVGMVPEWSENS [A79V] | decreasing interaction strength | decreasing interaction strength
MADTDEGFGLARTPLEPDSKDRSCDSKPESALGAPSKSPSSPQAAFTQQGMEGIKVFLHERELWLKFHEVGTEMIITKAQRRMFPSYKVKVTGLNPKTKYILLMDIVPADDHRYKFADNKWSVTGKAEPAMPGRLYVHPDSPATGAHWMRQLVSFQKLKLTNNHLDPFGHIILNSMHKYQPRLHIVKADENNGFGSKNTAFCTHVFPETAFIAVTSYQNHKITQLKIENNPFAKGFRGSDDLELHRMSRMQSKEYPVVPRSTVRHKVTSNHSPFSSETRALSTSSNLGSQYQCENGVSGPSQDLLPPPNPYPLAQEHSQIYHCTKRKDEECSSTEHPYKKPYMETSPSEEDTFYRSGYPQQQGLSTSYRTESAQRQACMYASSAPPSEPVPSLEDISCNTWPSMPSYSSCTVTTVQPMDRLPYQHFSAHFTSGPLVPRLAGMANHGSPQLGEGMFQHQTSVAHQPVVRQCGPQTGLQSPGGLQPPEFLYTHGVPRTLSPHQYHSVHGVGMVPEWSENS [G80Q] | decreasing interaction strength | decreasing interaction strength
